According to US20160362487A1:
One block for each substance: values may come before it.

Assays:
[1] = target: human IL-33 (R&D Systems, #3625-IL-010/CF) (human) (UniProt O95760); test: BLI; hIL-33 pre-mixed with mAb-2 H4H9667P
[2] = target: human IL-33 (R&D Systems, #3625-IL-010/CF) (human) (UniProt O95760); test: BLI; hIL-33 pre-mixed with mAb-2 H4H9670P
[3] = target: human IL-33 (R&D Systems, #3625-IL-010/CF) (human) (UniProt O95760); test: BLI; hIL-33 pre-mixed with mAb-2 H4H9676P
[4] = target: cynomolgus monkey IL-33 expressed with a C-terminal hexahistidine tag (cynomolgus monkey); test: BLI; captured MfIL-33-6His pre-complexed with mAb-1 H4H9667P
Sequence of cynomolgus monkey IL-33 expressed with a C-terminal hexahistidine tag (cynomolgus monkey) (chain, as listed by the source limits assumed): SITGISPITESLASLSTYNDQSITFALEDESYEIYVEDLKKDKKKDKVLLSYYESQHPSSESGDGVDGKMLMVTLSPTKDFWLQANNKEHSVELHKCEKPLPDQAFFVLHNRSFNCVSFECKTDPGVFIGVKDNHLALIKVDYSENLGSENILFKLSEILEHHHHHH

[5] = target: cynomolgus monkey IL-33 expressed with a C-terminal hexahistidine tag (cynomolgus monkey); test: BLI; captured MfIL-33-6His pre-complexed with mAb-1 H4H9664P
[6] = target: cynomolgus monkey IL-33 expressed with a C-terminal hexahistidine tag (cynomolgus monkey); test: BLI; captured MfIL-33-6His pre-complexed with mAb-1 H1M9565N
[7] = target: cynomolgus monkey IL-33 expressed with a C-terminal hexahistidine tag (cynomolgus monkey); test: BLI; captured MfIL-33-6His pre-complexed with mAb-1 H4H9640P
[8] = target: cynomolgus monkey IL-33 expressed with a C-terminal hexahistidine tag (cynomolgus monkey); test: BLI; captured MfIL-33-6His, mAb-1 step with Buffer
[9] = target: cynomolgus monkey IL-33 expressed with a C-terminal hexahistidine tag (cynomolgus monkey); test: BLI; captured MfIL-33-6His pre-complexed with mAb-1 H1M9566N
[10] = target: cynomolgus monkey IL-33 expressed with a C-terminal hexahistidine tag (cynomolgus monkey); test: BLI; captured MfIL-33-6His pre-complexed with mAb-1 H1M9559N
[11] = target: cynomolgus monkey IL-33 expressed with a C-terminal hexahistidine tag (cynomolgus monkey); test: BLI; captured MfIL-33-6His, mAb-1 step with Isotype control
[12] = target: cynomolgus monkey IL-33 expressed with a C-terminal hexahistidine tag (cynomolgus monkey); test: BLI; mAb-1 on captured MfIL-33-6His
[13] = target: cynomolgus monkey IL-33 expressed with a C-terminal hexahistidine tag (cynomolgus monkey); test: BLI; captured MfIL-33-6His pre-complexed with mAb-1 H4H9665P
[14] = target: human IL-33 (R&D Systems, #3625-IL-010/CF) (human) (UniProt O95760); test: BLI; hIL-33 pre-mixed with mAb-2 H1M9559N

Sequence of human IL-33 (R&D Systems, #3625-IL-010/CF) (human) (O95760 112-270 limits assumed): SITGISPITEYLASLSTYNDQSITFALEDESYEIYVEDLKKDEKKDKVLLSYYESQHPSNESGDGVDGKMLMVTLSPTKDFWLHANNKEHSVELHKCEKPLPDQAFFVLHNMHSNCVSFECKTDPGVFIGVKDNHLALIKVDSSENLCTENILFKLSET

mAb-1 Binding to the Pre-complex of mAb-2 & hIL-33 [1]: 0.01 nm | mAb-1 Binding to the Pre-complex of mAb-2 & hIL-33 [2]: 0.01 nm | mAb-1 Binding to the Pre-complex of mAb-2 & hIL-33 [3]: 0.01 nm
Substance: Isotype control 1 (antibody)

mAb-2 Binding to the Pre-complex of mAb-1 & MfIL-33-6xHis [4]: 0.03 nm | mAb-2 Binding to the Pre-complex of mAb-1 & MfIL-33-6xHis [5]: 0.02 nm | mAb-2 Binding to the Pre-complex of mAb-1 & MfIL-33-6xHis [6]: 0.04 nm | mAb-2 Binding to the Pre-complex of mAb-1 & MfIL-33-6xHis [7]: 0.02 nm | mAb-2 Binding to the Pre-complex of mAb-1 & MfIL-33-6xHis [8]: 0.03 nm | mAb-2 Binding to the Pre-complex of mAb-1 & MfIL-33-6xHis [9]: 0.04 nm | mAb-2 Binding to the Pre-complex of mAb-1 & MfIL-33-6xHis [10]: 0.01 nm | mAb-2 Binding to the Pre-complex of mAb-1 & MfIL-33-6xHis [11]: 0.01 nm | mAb-1 Binding (nm) [12]: 0.01 nm | mAb-2 Binding to the Pre-complex of mAb-1 & MfIL-33-6xHis [13]: 0.03 nm
Substance: isotype control antibody

mAb-1 Binding to the Pre-complex of mAb-2 & hIL-33 [14]: 0.02 nm
Substance: Isotype control 2 (antibody)
